From US20220089766A1 (published 2022)

Experiments:
[1] = target: T1, human CD38 on target cells (HEK293/hCD20/hCD38, MOLP8, NALM-6, NALM-6/hPD-L1) (human, UniProt P28907 1-300); assay: cell-based or functional assay
[2] = target: T1, human CD38 on target cells …; assay: cell-based or functional assay; remark: listed apart in the source
[3] = target: T1, human CD38 on target cells …; assay: cell-based or functional assay; remark: listed apart in the source
[4] = target: T1, human CD38 on target cells …; assay: cell-based or functional assay; remark: listed apart in the source
[5] = target: T2, Monomeric human CD38 with a c-terminal myc-myc-hexahistidine tag (hCD38.mmH) (human, UniProt P28907 43-300); assay: SPR (Biacore, 25 C); group summary of Table 8
T2 construct: also called bsAb3305; not shown: C-terminal myc-myc-hexahistidine tag

[6] = target: T3, Dimeric human CD28 with a c-terminal mouse Fc tag (hCD28.mFc) (human); assay: SPR (Biacore, 25 C); group summary of Table 9
T3 construct: also called bsAb2012; Human CD28 extracellular domain (N19-P152).mFc
Method: (§1) For CD28 kinetic determinations, SPR experiments were performed using a Biacore 3000 instrument at 25° C. Dimeric human CD28 with a c-terminal mouse Fc tag (hCD28.mFc, bsAb2012) were captured for 37 seconds at a flow rate of 8 uL/min on a CM5 anti-mouseFc-(GE)-coupled surface. Approximately 150 RU of hCD28.mFc were captured. […] Dissociation was measured for 10 minutes. The KD and t_{1/2} were calculated by fitting the double-referenced sensorgrams to a 1:1 binding model.

[7] = target: T2, Monomeric human CD38 with a c-terminal …; assay: SPR (Biacore 3000, 25 C); bsAb captured on anti-human Fc, hCD38.mmH injected; 1:1 fit
Method: For CD38 kinetic determinations, SPR experiments were performed using a Biacore 3000 instrument at 25° C. Antibodies were captured for 37 seconds at a flow rate of 8 uL/min on a CM5 anti-humanFc-(bsAb2567)-coupled surface. Approximately 230 RU of each antibody were captured. […] Dissociation was measured for 10 minutes. The KD and t½ were calculated by fitting the double-referenced sensorgrams to a 1:1 binding model.

[8] = target: T3, Dimeric human CD28 with a c-terminal …; assay: SPR (Biacore 3000, 25 C); hCD28.mFc captured on anti-mouse Fc, bsAb injected; 1:1 fit
Method: as §1

| IL2 release EC50; T cells + HEK293/hCD20/hCD38, + TAAxCD3 (bsAb1979) [1] | IL2 release EC50; T cells + MOLP8, + IgG4^P isotype control [1] | IFNγ release EC50; T cells + HEK293/hCD20/hCD38, + TAAxCD3 (bsAb1979) [2] | IFNγ release EC50; T cells + MOLP8, + TAAxCD3 (bsAb5458) [2] | T-cell proliferation EC50; T cells + HEK293/hCD20/hCD38, + TAAxCD3 (bsAb1979) [3] | IL2 release EC50; T cells + NALM-6, + Cemiplimab [4] | IL2 release EC50; T cells + NALM-6/hPD-L1, + Cemiplimab [4] | IL2 release EC50; T cells + NALM-6/hPD-L1, + IgG4^P [4] | Binder | further results |
| --- | --- | --- | --- | --- | --- | --- | --- | --- | --- |
| 0.00502 nM | 0.00971 nM | 0.123 nM | 0.00424 nM | 0.000894 nM | 0.0981 nM | 0.143 nM | 0.169 nM | bsAb7945 (bispecific antibody, human IgG4 S228P, kappa) heavy 1: QVQLVQSGAEVKKPGSSVKVSCKASGGPFRSSSFSWVRQAPGQGLEWMGGIIPILGKTNYAQKFQGRITIVTDESTTTVYMELSSLRSEDTAVFYCVRGSSLFDYWGQGTLVTVSSASTKGPSVFPLAPCSRSTSESTAALGCLVKDYFPEPVTVSWNSGALTSGVHTFPAVLQSSGLYSLSSVVTVPSSSLGTKTYTCNVDHKPSNTKVDKRVESKYGPPCPPCPAPPVAGPSVFLFPPKPKDTLMISRTPEVTCVVVDVSQEDPEVQFNWYVDGVEVHNAKTKPREEQFNSTYRVVSVLTVLHQDWLNGKEYKCKVSNKGLPSSIEKTISKAKGQPREPQVYTLPPSQEEMTKNQVSLTCLVKGFYPSDIAVEWESNGQPENNYKTTPPVLDSDGSFFLYSRLTVDKSRWQEGNVFSCSVMHEALHNHYTQKSLSLSLGK heavy 2: QVQLQESGPGLVKPSETLSLTCTVSGGSISSYYWSWIRQPPGKGLEWIGYIYYSGITHYNPSLKSRVTISVDTSKIQFSLKLSSVTAADTAVYYCARWGVRRDYYYYGMDVWGQGTTVTVSSASTKGPSVFPLAPCSRSTSESTAALGCLVKDYFPEPVTVSWNSGALTSGVHTFPAVLQSSGLYSLSSVVTVPSSSLGTKTYTCNVDHKPSNTKVDKRVESKYGPPCPPCPAPPVAGPSVFLFPPKPKDTLMISRTPEVTCVVVDVSQEDPEVQFNWYVDGVEVHNAKTKPREEQFNSTYRVVSVLTVLHQDWLNGKEYKCKVSNKGLPSSIEKTISKAKGQPREPQVYTLPPSQEEMTKNQVSLTCLVKGFYPSDIAVEWESNGQPENNYKTTPPVLDSDGSFFLYSRLTVDKSRWQEGNVFSCSVMHEALHNRFTQKSLSLSPGK light: not shown | IL2 release EC50; T cells + HEK293/hCD20/hCD38, + IgG4^P isotype control [1]: 41.4 nM; T-cell proliferation EC50; T cells + HEK293/hCD20/hCD38, + IgG4^P isotype control [3]: 45.6 nM |
| 0.199 nM | 0.653 nM | 0.294 nM | 0.748 nM | 0.143 nM | 2.44 nM | 4.39 nM | 2.64 nM | bsAb6031 (bispecific antibody, human IgG4 S228P, kappa, also called anti-CD38×CD28 bispecific antibody) heavy 1: EVQLVESGGGLVQPGRSLRLSCAASGFTFDDYAMHWVRQAPGKGLEWVSGISWKSDNIGYADSVKGRFTISRDNAKNSLYLQMNSLRAEDTALYYCAKALGGWKFDYYYGMDVWGQGTTVTVSSASTKGPSVFPLAPCSRSTSESTAALGCLVKDYFPEPVTVSWNSGALTSGVHTFPAVLQSSGLYSLSSVVTVPSSSLGTKTYTCNVDHKPSNTKVDKRVESKYGPPCPPCPAPPVAGPSVFLFPPKPKDTLMISRTPEVTCVVVDVSQEDPEVQFNWYVDGVEVHNAKTKPREEQFNSTYRVVSVLTVLHQDWLNGKEYKCKVSNKGLPSSIEKTISKAKGQPREPQVYTLPPSQEEMTKNQVSLTCLVKGFYPSDIAVEWESNGQPENNYKTTPPVLDSDGSFFLYSRLTVDKSRWQEGNVFSCSVMHEALHNHYTQKSLSLSLGK heavy 2: EVQLVESGGGLVQPGGSLRLSCAASGFTFSRNNMHWVRQAPGKGLEYVSGISSNGGRTYYADSVKGRFTISRDNSKNTLYLQMGGLRAADMAVYFCTRDDELLSFDYWGQGTLVTVSSASTKGPSVFPLAPCSRSTSESTAALGCLVKDYFPEPVTVSWNSGALTSGVHTFPAVLQSSGLYSLSSVVTVPSSSLGTKTYTCNVDHKPSNTKVDKRVESKYGPPCPPCPAPPVAGPSVFLFPPKPKDTLMISRTPEVTCVVVDVSQEDPEVQFNWYVDGVEVHNAKTKPREEQFNSTYRVVSVLTVLHQDWLNGKEYKCKVSNKGLPSSIEKTISKAKGQPREPQVYTLPPSQEEMTKNQVSLTCLVKGFYPSDIAVEWESNGQPENNYKTTPPVLDSDGSFFLYSRLTVDKSRWQEGNVFSCSVMHEALHNRFTQKSLSLSPGK light: not shown | IL2 release EC50; T cells + MOLP8, + TAAxCD3 (bsAb5458) [1]: 1.02 nM; T-cell proliferation EC50; T cells + MOLP8, + IgG4^P isotype control [3]: 0.467 nM; IL2 release EC50; T cells + NALM-6, + IgG4^P [4]: 1.68 nM; Kd [5]: < 10 nM; Kd [6]: < 26 nM; Kd [7]: 7.08 nM; koff [7]: 0.000748 s⁻¹; kon [7]: 106000 M⁻¹ s⁻¹; t½ [7]: 15.4 min; Kd [8]: 25.9 nM; koff [8]: 0.00149 s⁻¹; kon [8]: 57400 M⁻¹ s⁻¹; t½ [8]: 7.8 min |
